Patent US20190016818A1, “ANTIBODIES AGAINST GLYPICAN-3 AND THEIR USES IN CANCER DIAGNOSIS AND TREATMENT” (LA JOLLA BIOLOGICS, INC., priority 2015, published 2019)

Key:
Hep3B hepatoma cells = assay: Hep3B xenograft animal model with GES1 IgG; assay type: in vivo, NOD-SCID mice; conditions: 200 mg/Kg sorafenib orally
Protocol: GES1 scFv antibody was humanized to obtain humanized IgG antibody (GES1 humanized scFv antibody) and a xenograft animal model was conducted. Hep3B hepatoma cells were cloned to NOD-SCID mice. After the tumors were generated, 1 mg/Kg and 5 mg/Kg of GES1 IgG were i.v. injected into the mice once a week. Another group of the mice were orally administered with 200 mg/Kg sorafenic.

[1] = system: HepG2 and HuH-7 ectopic xenografts; conditions: cited from earlier work
GPC3 in Hep3B cells = target: T1, GPC3 in Hep3B cells (Homo sapiens, UniProt P51654); assay: Immunoprecipitation assay, Hep3B cell lysate; assay type: binding; conditions: Hep3B total cell lysate; data very preliminary
T1 construct: endogenous in cells; host or cells: Hep3B
Protocol: (§1) Antibody beads were prepared by covalently linking 100 ul of Ni-NTA Sepharose (Amersham Biosciences) and 1 mg of anti-GPC3 scFv antibodies with 20 mM dimethyl pimelimidate. Then, 500 ul of HepG2 and Hep3B cell lysates were be mixed with 25 ul of antibody beads and incubated for 2 hr at 4° C. After extensive washing with PBST, antibody beads will be resuspended in 50 ul of SDS-PAGE loading buffer, boiled for 5 min, and subsequently subjected to western blotting analysis. […] The total cell lysates of Hep3B and HepG2 were incubated with a mixture of his-beads and G5S1, GES1, GES6 or 70SC control scFv antibodies individually. After washing, the his-beads complex was subjected to SDS-PAGE and western blot analysis. […] By contrast, the protein in HepG2 cells was precipitated by GES1, G5S1 and GES6 scFv antibodies. However, the data were very preliminary and need further verification.

Hep3B cells [2] = assay: Soft agar colony formation assay, Hep3B; assay type: cell-based, human; conditions: 0.5 μM scFv, 4 weeks
Protocol: (§2) To determine the clonogenicity of HepG2, Hep3B, cells, 5×10^5 cells were pre-incubated in 2 ml DMEM medium containing anti-GPC3 antibodies at concentrations of 0.5-5 uM for 48 hr. Thereafter, cells were harvested, counted and transferred into semi-solid medium supplemented with 0.8% DMEM-methylcellulose and 30% FBS. Finally, 1 ml of the semi-solid medium containing 5×10^3 individual type of cell was plated onto 3.5 cm Petri-dishes. Triplicated Petri-dishes per treatment protocol will be cultivated for 5-7 days under standard conditions. Colony formation (clusters of >30 cells) will be visualized by staining with crystal violet and scored by an inverted microscope. […] The effect of GPC3 scFv on anchorage independent growth of HepG2 and Hep3B cells was explored. Hepatoma cells were treated with 0.5 μM of G5S1, GES1 or α-RTS6 (neg) scFv antibodies for 1 hr and suspended in medium containing 0.4% low melting agarose and plated onto solidified 0.9% agarose in medium at a density of 1×10^5 cells per dish. After incubating for 4 weeks, the number of colonies was counted and recorded. […] The exact reason for the distinct inhibition on 2 cell lines is presently not known.

GPC3 in HepG2 cells = GPC3 in HepG2 cells (Homo sapiens, UniProt P51654); assay: Immunoprecipitation assay, HepG2 cell lysate; assay type: binding; set-up: endogenous in cells; host or cells: HepG2; conditions: HepG2 total cell lysate; data very preliminary
Protocol: as §1

Hep3B xenograft = assay: Tumor xenograft model, Ki-67 immunohistochemistry of tumor tissue; assay type: in vivo, NOD-SCID mice; conditions: 800 ug/mouse/per time i.v.; compared to untreated groups
Protocol: NOD-SCID mice were used. Briefly, 4-week-old female […] mice were injected subcutaneously with 4×10^6 of HepG2 and Hep3B cancer cells at a single dorsal site. At day 14, tumor-bearing mice were randomized into experimental groups (5 per group) and treated with anti-GPC3 antibodies and positive control with sorafenib accordingly. 400 ug or 800 ug of antibodies were given through intravenous (i.v.) injection every 3 days for 3 weeks. Tumor size was measured every 2 days with calipers until animals are sacrificed. At the time of sacrifice, tumors were dissected and weighted.
Tissue sections from xenograft tumor tissues in mice were de-waxed in xylene and rehydrated through graded alcohols. The antigen retrieval was carried out by heating the rehydrated tissues in 10 mM sodium citrate (pH 6.0) for 20 min. After washing with buffer containing 10 mM Tris-HCl (pH 7.4) and 150 mM sodium chloride, the sections were treated with 3% hydrogen peroxide for 5 min. Anti-Ki-67 antibodies (commercial polyclonal antibody) was be applied for 1 hr at room temperature. Optimal horseradish peroxidase-conjugated secondary antibodies and diaminobenzidine were added sequentially to detect the Ki-67 proliferation marker expression in the examined tissues. The slides were counterstained with GM hematoxylin solution. […]

Hep3B cells [3] = assay: Cell migration (wounded monolayer) assay; assay type: cell-based, human; conditions: Hep3B monolayers wounded, 0.5 uM scFv, 24 hr
Protocol: For cell migration assays, 1×10^3 cells were incubated with anti-GPC3 antibodies at concentrations of 1 to 200 μg/ml for 48 hr before being transferred into a transwell migration system. The cells were plated onto a polycarbonate filter membrane with a pore size of 8 μm (upper layer) and incubated for different time interval at 37° C. in 5% CO2 incubator. Serum free medium containing 0.5 mM EDTA was used for washing off the cells from the lower part of the membrane to lower wells. The cells in the lower wells were collected with centrifugation at 3000 g for 5 min and perform direct cell counting under microscope. The mean growth rate (MGR) of cells after migration through the polycarbonate filter was determined by the equation: MGR=log 2 Nt−log2 N0/t, with N0 as initial cell number, Nt as final cell number and t as time period of cell incubation in days. […] To explore whether the GPC3 protein is essential for cell migration, Hep3B cells were cultured until confluence. The monolayers were wounded, cultured with medium containing 0.5 uM of G5 S1 or GES1 and two controls (NC-70sc or NC-spE) scFv antibodies and analyzed after 24, hr. […] The effect of G5S1 scFv was minimal and reached to the basal level obtained in medium without any scFv antibody.

HepG2 cells [4] = assay: Cell cycle analysis (propidium iodide, FACS); assay type: cell-based, human
Protocol: Fixed cells were stained with propidium iodide and analyzed by FACS. The cell-cycle distribution of different phases was analyzed with FlowJo v 9.0. FIGS. 12 A, B and C show the results of cell cycle analysis. After treated with G5S1, GES1 or α-RTS6 (neg) scFv antibodies for 48 hrs, the adherent HepG2 cells were detached, washed, and exposed to 70% ethanol on 4° C. overnight. After washing, cells were incubated with […] propidium iodide and […] RNaseA. FACS was carried out and data were statistically analyzed by FlowJo software.

HepG2 cells [5] = assay: Soft agar colony formation assay, HepG2; assay type: cell-based, human; conditions: 0.5 μM scFv, 4 weeks
Protocol: as §2

GPC3 [6] = target: T2, GPC3 (Homo sapiens, UniProt P51654); assay: ELISA binding to commercially available GPC3 immobilized on plate wells; set-up: analysis of commercial GPC3_extracellular domain (ECD) and truncated (C185) proteins; purchased; conditions: partially purified scFv
Protocol: (§3) Nitrocellulose membranes were blocked with 5% skim milk in TBST for 1 hr. Polyclonal goat anti-chicken IgY light chain antibodies were added at 1:5000 dilution and incubated for an additional hr. The membranes were washed with TBST three times and the bound antibodies were detected by adding horseradish peroxidase (HRP)-conjugated donkey anti-goat Ig antibodies at 1:3000 dilutions. After three washings, the membranes were developed with diaminobenzidine (DAB) substrate until the desired intensity was reached. The IgY antibodies or the E. coli-expressed scFv antibodies were purified and incubated with the purified GPC3 protein or cellular lysates of GPC3-positive HepG2 and Hep3B cells immobilized on nitrocellulose membranes or ELISA plate wells. Their binding was subsequently detected by adding goat anti-mouse IgG or anti-chicken IgY light chain followed by HRP-conjugated donkey anti-goat Ig antibodies as described above.
HepG2, Hep3B, cells (2×10^5 cells/ml) was seeded on cover glass and fixed by incubating with equal volume of 8% freshly prepared ice-cold paraformaldehyde on ice for 15 min. After fixing, the cells were dehydrated in a sequential treatment of 70%, 95% and 99% methanol and rehydrated with 95% and 70% methanol. […] Finally, their binding to GPC3 protein was detected by mouse anti-HA antibodies, followed by FITC-conjugated goat anti-mouse antibodies. […]

GPC3 [7] = target: T2, GPC3; assay: Western blot of GPC3 extracellular domain protein and hepatoma cell lysates; assay type: binding; set-up: purchased; conditions: commercial GPC3 extracellular domain protein under reducing condition; lysates of hepatoma cell lines
Protocol: as §3

HepG2 cells [8] = assay: Proliferation (MTT) assay; assay type: cell-based, human
Protocol: A volume of 100 μl DMEM medium containing 5×10^3 HepG2, Hep3B, wherein cells were seeded onto 96-well plates. […] Thereafter, 10 μl of 3-[4,5-dimethylthiazol-2-yl]-2,5-diphenyltetrazolium bromide (MTT; 10 mg/ml) were added to determine the number of surviving cells. The supernatant was removed after 3 hr of incubation, and formazan crystals that had been developed were dissolved by adding of 100 μl acidified 2-propanol/well (0.04 N HCl). Extinction was measured by an automated microtiter plate reader at 540 nm. Unrelated anti-snake venom antibodies (neg) were included in control experiments. […] HepG2 cells were cultured in the medium containing G5S1, GES1, GES6 or control scFv antibodies at final concentrations of 0.1 μM for 1-6 days.

[9] = system: GPC3-positive HepG2 cells and Hep 3B cells; assay: Immunofluorescence staining binding analysis; assay type: cell-based, human; conditions: Hep 3B cells (FIG. 9A) and Hep G2 cells (FIG. 9B)
Protocol: HepG2, Hep3B, cells (2×10^5 cells/ml) were seeded on cover glass and fixed by incubating with equal volume of 8% freshly prepared ice-cold paraformaldehyde on ice for 15 min. After fixing, the cells were dehydrated in a sequential treatment of 70%, 95% and 99% methanol and rehydrated with 95% and 70% methanol. The slides were then overlaid with blocking buffer (1% BSA in 1×PBS) at room temperature (RT) for 1 hr. Following washing with 1×PBS, specific monoclonal mouse or scFv antibodies were incubated with cells at RT for one additional hr. Finally, their binding to GPC3 protein was detected by mouse anti-HA antibodies, followed by FITC-conjugated goat anti-mouse antibodies. Nuclei were counterstained with PI solution in parallel. The slides were examined using a Confocal Spectral Microscope Imaging System (TCS SP5, Leica). […] The partially purified scFv antibodies were examined for their binding activity to GPC3-positive HepG2 cells and Hep 3B cells.

[10] = system: GPC3-positive Hep3B, HepG2 and HepJ5 cells; assay: Flow cytometry binding analysis; assay type: cell-based, human; conditions: 100 μg/ml
Protocol: A total of 2×10^6 HepG2, Hep3B, cells were harvested and fixed with 2% paraformaldehyde as described previously with minor modification (Leu et al., 2010). The GPC3 molecule expressed in these […] cells were detected by adding purified chicken scFv antibodies, followed by mouse anti-HA (1:200) and FITC-conjugated goat anti-mouse antibodies (1:200). The results were analyzed using the FACScan flow cytometer Negative controls were performed by omitting the primary scFv antibodies, while positive controls were performed using commercial polyclonal anti-human GPC3 antibodies (1:200) instead of home-made chicken anti-GPC3 scFv antibodies. […] The partially purified scFv antibodies were examined for their binding activity to GPC3-positive Hep3B, HepG2 and HepJ5 cells.

## CNC(=O)c1cc(Oc2ccc(NC(=O)Nc3ccc(Cl)c(C(F)(F)F)c3)cc2)ccn1 [sorafenib]
Hep3B hepatoma cells
  tumor growth inhibition: 48.8%

## hGC33: Humanized GC33
[1]
  efficacy against the HepG2 xenograft relative to GC33: as effective as GC33

B1: GES1: chicken anti-GPC3 scFv antibody; heavy chain SEQ ID NO: 30, light chain SEQ ID NO: 38 (antibody, V domains shown)
VH: EVQLLESGGGLVQPGGSLRLSCAASGFTFSSFNMFWVRQAPGKGLEWVSWISSTGSRTKYADSVKGRFTISRDNSKNTLYLQMNSLRAEDTATYYCAKSASRGAGRIDAWGRGTLVTVSS
VL: ALTQPPSASGSPGQSITISCTGTGGSYGWYQQHAGKAPKLVIYNNNKRPSGVPDRFSGSKSGNTASLTVSGLQTDDEAVYYCGSRDSSYFGIFGGGTKLTVL
modifications: scFv linker
GPC3 in Hep3B cells
  precipitation of protein with predicted molecular weight of GPC3: precipitated
Hep3B cells [2]
  inhibitory effect on colony formation: not as obvious
GPC3 in HepG2 cells
  precipitation of protein with predicted molecular weight of GPC3: precipitated
Hep3B xenograft
  Ki-67 expression in tumor sections: reduced level of Ki-67 expression
Hep3B cells [3]
  effect on cell migration: partial inhibitory effect
HepG2 cells [4]; 0.5 μM, 48 hrs
  cell cycle arrest: arrested in G1 phase
HepG2 cells [4]; treated 48 hrs
  cell population in subG1 stage: 28.8%
HepG2 cells [5]
  inhibitory effect on colony formation: significant inhibitory effort on colony formation
GPC3 [6]
  binding activity to GPC3 on ELISA: reacted significantly with GPC3
GPC3 [7]
  fragment of GPC3 identified on western blot: can identify C-terminus fragment of GPC3 and GPC3 in cellular lysates
HepG2 cells [8]; 0, 0.5, 1, 2, 4 and 8 μM for 3 days
  inhibition of cell proliferation, concentration dependence: inhibited the cell proliferation in a dosage-dependent manner
HepG2 cells [8]; HepG2 cells, 0.1 μM, day 6
  suppression on cell proliferation: approximately 60%
[9]
  binding signal to cell surface (immunofluorescence): various but significant binding signal
[10]
  binding signal to hepatoma cells (flow cytometry): various but significant binding signal
